Laboratory results as given in patent US11608490B2, “Composition for enhancing hair growth-inducing ability of adipose stem cells comprising udenafil as active ingredient” (INDUSTRY-ACADEMIC COOPERATION FOUNDATION, YONSEI UNIVERSITY, priority 2018, dated 2023).

Assays:
[1] = system: IL-4 mRNA; assay: qPCR of IL-4 expression level in udenafil-treated adipose stem cells; assay type: cell-based; conditions: adipose stem cells treated with 1 μM udenafil for 3 to 4 days, versus non-udenafil-treated adipose stem cells (Control); FIG. 3
Description: (§1) First, adipose stem cells were preconditioned with udenafil to prepare stimulated adipose stem cells. Adipose stem cells were inoculated on a […] and cultured. The following day, 1 μM udenafil was added to the culture medium and additional culture was performed for 3 to 4 days. Subsequently, adherent cultured adipose stem cells were detached with trypsin, and then obtained by centrifugation. The obtained adipose stem cells were prepared by being mixed with 100 μl of PBS.
(§2) Specifically, as performed in Example <1-1>, adipose stem cells were treated with udenafil and cultured. After completion of the culture, the cells were obtained and RNA was extracted from the cells by treatment with TRIZOL™ (Invitrogen, NY, USA). Using the extracted RNA as a template, cDNA was synthesized through RT-PCR using oligodT and HELIXCRIPT™ Thermo Reverse Transcription System (NANOHELIX, WI, USA). The synthesized cDNA and BrightGreen qPCR master mix-ROX (abm, NY, US) were added to 96-well qPCR assay Kit for identifying growth factors [RT^2 First Strand (DNA Synthesis Kit (QIAGEN, MD, USA)], to perform a qPCR reaction. The results obtained by performing the qPCR reaction were analyzed using a program which corresponds to the RT^2 First Strand cDNA Synthesis Kit and is provided by QIAGEN, and IL-4 and IL-12B expression levels in the udenafil-treated adipose stem cells were respectively identified.

[2] = system: IL-12B mRNA; assay: qPCR of IL-12B expression level in udenafil-treated adipose stem cells; assay type: cell-based; conditions: adipose stem cells treated with 1 μM udenafil for 3 to 4 days, versus non-udenafil-treated adipose stem cells (Control); FIG. 3
Description: as §1, §2

[3] = system: human adipose stem cells; assay: Cell growth assay (live cell number, trypan blue); assay type: cell-based; conditions: 7 days; for proliferation of the adipose stem cells (live cell number): IL-4 or IL-12B 100 ng/ml, FIG. 7(A)
Description: (§3) Human adipose stem cells were isolated via liposuction of subcutaneous fat, as described in a previous study: Briefly, the fat was washed with phosphate-buffered saline (PBS), 0.075% collagenase was added, and the mixture was incubated for 45 minutes at 37° C. with gentle shaking. After centrifugation, the pellet was filtered through a 100 am nylon mesh. Then, the cells were cultured with an essential medium containing alpha Minimum Essential Medium (α-MEM) (Hyclone, Logan, Utah, USA), 10% fetal bovine serum (FBS) (Gibco, Carlsbad, Calif., USA), and 1% antibiotics (Gibco) for three passages. Then, the medium was changed to contain α-MEM, 10% FBS, and 1% penicillin/streptomycin (Gibco), and the cells were cultured for four passages. The adipose stem cells at passages 5 to 7 were used for all experiments. Characterization of the adipose stem cells was performed using flow cytometry. The adipose stem cells were positive for CD44, CD73, CD90, CD105, human leukocyte antigen (HLA)-I, and podocalyxin-like protein (PODXL), and were negative for hematopoietic markers such as CD34 and CD45. A multipotent differentiation potential was examined, as described in a previous study; as a result, the adipose stem cells could be differentiated into adipocytes, osteocytes, and chondrocytes. The adipose stem cells were maintained at 37° C. in a humidified 5% CO2 incubator.
For cell growth assay, the adipose stem cells were seeded in 12-well plates, with 5×10^3 cells/well, treated with udenafil (0.1, 0.5, or 1 μM), and incubated for 7 days. The adipose stem cells were also seeded in 12-well plates, with 1×10^4 cells/well, treated with a synthetic peptide of IL-4 or IL-12B (100 ng/ml), and incubated for 7 days. The cells were then trypsinized, stained with trypan blue (Sigma-Aldrich, MO, USA), and counted each day using a hemocytometer.

[4] = system: human adipose stem cells; assay: Scratch wound-healing assay; assay type: cell-based; conditions: for migration of the adipose stem cells, scratch wound-healing assay: IL-4 or IL-12B in serum-free medium for 3 days, FIG. 7 (B to E)
Description: as §3
The adipose stem cells were seeded into 6-well plates and cultured to confluence. A sterile 1 ml pipette tip was used to scratch the cell monolayer. The cultures were then washed with PBS to remove de-plated cells, and the cells were again cultured with udenafil, or IL-4, and IL-12B in a serum-free medium for 3 days. Cell migration into the scratched area (wound closure) was visualized using a ZEISS™ Observer D1 microscope. Multiple images were acquired per well, and the average cell number within the wound was monitored over 3 days.

[5] = system: human adipose stem cells; assay: Transwell migration assay; assay type: cell-based; conditions: migration 1 day; for migration of the adipose stem cells, transwell migration assay: IL-4 or IL-12B treatment for 3 days, FIG. 7 (B to E)
Description: as §3
The adipose stem cells were seeded into 60 mm plates and treated with udenafil IL-4, or IL-12B for 3 days. The adipose stem cells starved for 1 day (1.5×10^4cells/well) were suspended in a serum-free medium and seeded on the upper side of transwell membrane inserts (BD Falcon, CA, USA), which was pre-coated with MATRIGEL™ (1/60 dilution, BD MATRIGEL™ matrix, CA, USA). The normal serum With FBS was added in the lower side thereof as a chemoattractant. […] The inserts were stained with […] solution (Sigma-Aldrich) for 20 minutes, and the cell number was analyzed under a ZEISS™ Observer D1 microscope. Multiple images (15 to 20) were acquired per insert, and the average cell counts were calculated.

[6] = system: human adipose stem cells; assay: Tube formation assay using MATRIGEL; assay type: cell-based; conditions: after 16 hours; FIG. 6(E)
Description: as §3, with “chondrocytes. […]” for “chondrocytes.”, “number of tubes was analyzed under” for “adipose stem cells were maintained at 37° C. in”, “ZEISS™ Observer D1 microscope.” for “humidified 5% CO2 incubator.”

[7] = system: C3H mice; assay: Hair growth effect of IL-4 or IL-12B peptide applied to dorsum of mice; assay type: in vivo, mouse; conditions: 100 ng/ml applied to dorsum once a day for 13 to 14 days, FIG. 4; for maturation of hair follicle tissue: H&E staining
Description: Specifically, the dorsal hair of 6-week-old C3H mice was completely removed, and 100 ng/ml of an IL-4 peptide or an IL-12B peptide was applied to the dorsum of the mice once a day. It was identified whether the hair was growing while applying the IL-4 peptide or IL-12B peptide for 13 to 14 days. Then, a photograph was taken and the dorsal skin tissue was obtained.

[8] = system: vibrissal hair follicle cells; assay: Vibrissal hair follicle culture, length of hair grown; assay type: cell-based, mouse; conditions: 5 ng/ml or 20 ng/ml, 3 days culture, versus non-treated control; FIG. 5
Description: In addition, the vibrissal hair follicle of 5-week-old C57b1/6 mice was dissected to obtain hair follicle cells, and the hair follicle cells were transferred to 48-well plates. Then, treatment with 5 ng/ml or 20 ng/ml of an IL-4 peptide or an IL-12B peptide was performed and culture was performed for 3 days. After completion of the culture, the hair follicle tissue was photographed and a length of hair grown therefrom was measured.

[9] = system: dermal papilla cells (DP cells); assay: Growth of dermal papilla cells after treatment with IL-4 or IL-12B; assay type: cell-based; conditions: FIG. 8

## CCCOc1ccc(S(=O)(=O)NCCC2CCCN2C)cc1-c1nc(=O)c2c([nH]1)c(CCC)nn2C (centres unmarked) [udenafil]
[1]
  IL-4 mRNA expression level: about 4 fold
[2]
  IL-12B mRNA expression level: about 6 fold
[3]; udenafil 0.1, 0.5 or 1 μM, FIG. 6(A)
  growth of adipose stem cells (live cell number): increases growth of adipose stem cells in a time- and dose-dependent manner
[4]; udenafil in serum-free medium for 3 days, FIG. 6 (B to D)
  ASC migration, scratch wound-healing assay: increases ASC migration in both assays in a dose-dependent manner
[5]; udenafil treatment for 3 days, FIG. 6 (B to D)
  ASC migration, transwell migration assay: increases ASC migration in both assays in a dose-dependent manner
[6]
  number of nascent tubes (tube-forming activity): increases the number of nascent tubes

B1: IL-12B peptide: cytokine whose expression is increased in udenafil-treated adipose stem cells; called IL-12B peptide, synthetic peptide of IL-12B, IL-12B protein (protein, UniProt P29460 23-328, looked up)
Interleukin-12 subunit beta: IWELKKDVYVVELDWYPDAPGEMVVLTCDTPEEDGITWTLDQSSEVLGSGKTLTIQVKEFGDAGQYTCHKGGEVLSHSLLLLHKKEDGIWSTDILKDQKEPKNKTFLRCEAKNYSGRFTCWWLTTISTDLTFSVKSSRGSSDPQGVTCGAATLSAERVRGDNKEYEYSVECQEDSACPAAEESLPIEVMVDAVHKLKYENYTSSFFIRDIIKPDPPKNLQLKPLKNSRQVEVSWEYPDTWSTPHSYFSLTFCVQVQGKSKREKKDRVFTDKTSATVICRKNASISVRAQDRYYSSSWSEWASVPCS
[7]
  hair growth effect: increased hair growth effect
  maturation of hair follicle tissue: significantly maturated
[8]
  length of hair grown from the hair follicle cells: longer than that of the non-treated control
[3]
  proliferation of the adipose stem cells (live cell number): increases proliferation of the adipose stem cells in a time- and dose-dependent manner
[4]
  migration of the adipose stem cells, scratch wound-healing assay: increase migration of the adipose stem cells in a dose-dependent manner
[5]
  migration of the adipose stem cells, transwell migration assay: increase migration of the adipose stem cells in a dose-dependent manner
[9]
  growth of the DP cells: increased growth of the DP cells

B2: IL-4 peptide: cytokine whose expression is increased in udenafil-treated adipose stem cells; called IL-4 peptide, synthetic peptide of IL-4, IL-4 protein (protein, UniProt P05112 25-153, looked up)
Interleukin-4: HKCDITLQEIIKTLNSLTEQKTLCTELTVTDIFAASKNTTEKETFCRAATVLRQFYSHHEKDTRCLGATAQQFHRHKQLIRFLKRLDRNLWGLAGLNSCPVKEANQSTLENFLERLKTIMREKYSKCSS
[7]
  hair growth effect: increased hair growth effect
  maturation of hair follicle tissue: significantly maturated
[8]
  length of hair grown from the hair follicle cells: longer than that of the non-treated control
[3]
  proliferation of the adipose stem cells (live cell number): not
[4]
  migration of the adipose stem cells, scratch wound-healing assay: increase migration of the adipose stem cells in a dose-dependent manner
[5]
  migration of the adipose stem cells, transwell migration assay: increase migration of the adipose stem cells in a dose-dependent manner
[9]
  growth of the DP cells: increased growth of the DP cells
